Laboratory results: the supplement of paper PMC9170038

System: MS2 coat protein
Experiment: apparent KD of MS2 coat protein; designed switch direction (-1 OFF switch, 1 ON switch): -1; higher = weaker reporter binding
Summary of the method: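 Three titration conditions were used: no input, 200 uM small-molecule ligand, and an oligonucleotide input. In each, SNAP-549-labelled MS2 coat protein was raised from 0.7 or 1.5 nM, doubling, to 3 µM over designed RNA switches transcribed on Illumina chips by stalled E. coli RNA polymerase. Curve fits of normalised cluster fluorescence gave values whose per-design median over clusters is the apparent KD.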

[1] = Eterna round: R95, input ligand: FMN 200 uM
[2] = Eterna round: R95, input ligand: microRNA oligo, concentration not stated
[3] = Eterna round: R95, input ligand: none
[4] = input ligand: microRNA oligo, concentration not stated

Sequence	apparent KD of MS2 coat protein [1] [nM]	apparent KD of MS2 coat protein [2] [nM]	apparent KD of MS2 coat protein [3] [nM]	apparent KD of MS2 coat protein (input ligand: FMN 200 uM) [nM]	apparent KD of MS2 coat protein (input ligand: none) [nM]	also measured
GUAUGUUAUGAGGAUAUCGGUGAACAUACACAUCGAGAAGGCAUGACAUGAGGAUCACCCAUGUCGAGGAUGAA [Exclusion 6 - B - 18:e] (puzzle: Exclusion 6)	47.2	18	23.7			
CCAAAUCAUGUAGGAUAUGCGUGGCGAAGCUAUGCAGAAGGACAUGAGGAUCACCCAUGUGCUUCCGUCUGCGUACAGACGGUA [JL ENG1 1.15] (Eterna round: R96, puzzle: Exclusion NG 1)				123	118	apparent KD of MS2 coat protein [4]: 103 nM
CCUCCACAUGAGGAUCACCCAUGUCAGGAUAUCGUGUGUGCGUUUUCGGUCUUUCGUGCGAGAAGGGACGUCUG (puzzle: Exclusion 1)		52.7				
GCAGAAAGUGUAGGAUAUAUAAUAAAGCGGAAACGCAAGACAUGAGGAUCACCCAUGUGUCCGGAAUAGAAGGGCAAAAGCUGC [EXNG2 V2 b] (Eterna round: R96, puzzle: Exclusion NG 2)				29.1	29.4	apparent KD of MS2 coat protein [4]: 19.9 nM
AGUAACUAUCACGAAAGUGAUAGUUACACAAGCAGUGAUACAUGAGGAUCACCCAUGUCCUCAUUUGCUCGUCUUAU [Sensor 3 - 28] (puzzle: Sensor v3, turn-off variant 2)	83.6	698	91			
AUGUUGCGAGGAUAUAUAAGGGUAUAUUCUUAAGAUAUGGAACAUGAGGAUCACCCAUGUAGAAGGUGCAUAAC [JR_Ex2_Sub043] (Eterna round: R97, puzzle: Exclusion 2)				79.1	73	
UUUUAACAUGAGGAUCACCCAUGUGAGGAUAUCGAAAUUUAUAUUUAUAUUAAUUUUACGAGAAGGCACAUUUU [JMF 90] (puzzle: Exclusion 1)		120				
GCCAGUGCAGGAUAUUCAAUAAUUCACAUGAGGAUCACCCAUGUCCAGCGAAAGCUGGAAGGAGAAGGGCACUGGC [Mat - Exclusion 5 - Eli mod - D85] (puzzle: Exclusion 5)	10.2	12.8	14.6			
CAUUAUGUUGAGGAUAUGCGCCGGAAAACUGACGCAGAAGGCGACACAUGAGGAUCACCCAUGUCAGUUUGCGA [salish99_ex6_r004_425] (Eterna round: R97, puzzle: Exclusion 6)				70.1	28.3	
AAAUUGGUAGAGGAUAUCGUACAGGAAACGAUGCGAGAAGGUUGCACAUGAGGAUCACCCAUGUUUAGUUGCGA [EX6 #43] (Eterna round: R97, puzzle: Exclusion 6)				23.3	20.8	
GAUUAUGCGAGCUUUAGGGACAUGAGGAUCACCCAUGUUCGUCUUAUUAGUCUGGAUACACUGACAUACCUAAAUCU [JMF 59] (puzzle: Sensor v3, turn-off variant 1)	14.8	20.9	16.4			
UUUAAUUUAAUUAAGAUCACAUGAGGAUCACCCAUGUAUAUAUAGGAUAUCAGCUCGAAUAGAGCUGAGAAGGAUAUAUACAUA [ExNG3/4-A4] (Eterna round: R96, puzzle: Exclusion NG 3)						apparent KD of MS2 coat protein [4]: 39.4 nM
UUUUUUUUGCGAGGAUAUGCAUUUAGUUAGUUAGCAGAAGGCGCGUUUCUAUACUCCUCUUCGUACAUGAGGAUCACCCAUGUU [JR_ExcNG1_Sub032] (Eterna round: R96, puzzle: Exclusion NG 1)				74.9	44.8	apparent KD of MS2 coat protein [4]: 35.7 nM
UCUGCCGCCGUGAGGAUAUGCCCGCGCAAACGCGGGCAGAAGGCACAUGAGGAUCACCCAUGUCCCGCGGUUUU [salish99_bmx4_r4_133] (Eterna round: R97, puzzle: Brourd's mod of Exclusion 4)				38.7	18.3	
AUAUGUAACUAGGAUAUCAGCAUACUUCAAUGUUGAGAAGGAGUUACAUGAGGAUCACCCAUGUAUCCAACAUG [Exclusion 6 - 3] (puzzle: Exclusion 6)		44.1				
ACAUGAGGAUCACCCAUGUAGACAGCUGCAACCGGUGAAAGACAGGAUAUGUGACGGCACAGGGAACAGAAGGGUCAAAGAAAA [Ceatasoes] (Eterna round: R96, puzzle: Exclusion NG 3)				21.2	30.9	apparent KD of MS2 coat protein [4]: 22 nM
AGUAGGUCUACCUUGGUGGAUCUGCAUUAUGCAAGUGAUACAUGAGGAUCACCCAUGUCCUCAUUUGCUCGUCUUAU [JL turnoff v2 99.24] (puzzle: Sensor v3, turn-off variant 2)	17.3	242	16.1			

Sequence	apparent KD of MS2 coat protein [1] [nM]	apparent KD of MS2 coat protein [2] [nM]	apparent KD of MS2 coat protein [3] [nM]	apparent KD of MS2 coat protein (input ligand: FMN 200 uM) [nM]	apparent KD of MS2 coat protein (input ligand: none) [nM]	also measured
AGGAAGCAAGGAUAUACGAGGAGAAGGUGUCGAUUUAAAGGACAUGAGGAUCACCCAUGUAGAAGGUGCGAGAA [JR_Exclu2_Sub048] (puzzle: Exclusion 2)	110	83.6	95.8			
UCGAGGUCAGGAUAUACAUGAGGAUCACCCAUGUGGAAGUAAGGUAGGAGAAGAGUAGGUAGAAGGGACGAGGG [JR_Exclu3_Sub051] (puzzle: Exclusion 3)	38.2	37.9	46.3			
AGCCACAGAGGAUAUACAUACAUCCAGUAGUUAAGAAUACUACAUGAGGAUCACCCAUGUAGAAGGCUGUGGCA [Omei Ex2 BD B6] (Eterna round: R97, puzzle: Exclusion 2)				383	84.3	
CGUUGGCGAGGAUAUACAUGAGGAUCACCCAUGUGAGAGAAAAAAGUGAGGAAGAAAAGUAGAAGGCGCUGACU [salish99_ex3_r3_051] (puzzle: Exclusion 3)	101	31.7	54.3			
CCGGAUAUGCAGGAUAUCGUAUCGGAGACGAUACGAGAAGGGUAUACAUGAGGAUCACCCAUGUGUCCUACCGG [Mat - Exclusion 6 - Eli Mod - D84] (puzzle: Exclusion 6)		22.2				
AUUGAUGUUGAGGAUAUGCUUUUAUUUAUAAUAGCAGAAGGCGAUACAUGAGGAUCACCCAUGUUCAUGGUUUU [JR_E6_Sub096] (puzzle: Exclusion 6)		24.5				
CCUCGACAUGAGGAUCACCCAUGUCAGGAUAUUGUGUUUCGGGUUUUUUACCGUUAGGCAAGAAGGGAUGUGUG [LRO-Excl1-15] (puzzle: Exclusion 1)		25.1				
GCAGGAUAAGUCAGGAUAUACCUAUGGAUACAUAGGUAGAAGGGACAUGAGGAUCACCCAUGUGCCUCACCUGC [Fiskers BMX 4 - 57] (puzzle: Brourd's mod of Exclusion 4)	48.7	16.6	16.1			
UUCAUGUGAGGAUAUAGUACUCCUUCUAUUAUUAUUGAGUAUUAGAAGGCACAUGAGGAUCACCCAUGUAGUAC [Ex4 - 3 - 40] (puzzle: Exclusion 4)		24.3				
AAGAAACAUGAGGAUCACCCAUGUGAGGAUAUGAAAAAGAAAAGAAAAGAAAGAAGGCUCAGAAGGCACAAAGG [salish99-ex1_r3_029] (puzzle: Exclusion 1)	30.5	24.1	28.6			
AAGAAAGGUGACAUGGGUGACAUGAGGAUCACCCAUGUUACAAGCUUGUUGCUCGUCUUAUAAUUAACCCAUGUCAC [LRO Sensor-off var1-20 mod of Stov1-13-A1 by Brourd] (Eterna round: R97, puzzle: Sensor, turn-off variant 1)				15.6	15.6	
GUAAAGUGAGGAUAUGGUAAAUUAAUUAUUUAGUAAUUAAUCCAGAAGGCACAUGAGGAUCACCCAUGUAAAUG [Mat - Exclusion 4 - D95] (puzzle: Exclusion 4)		32.1				
GUCGAUGUCAAAGGAUAUCAGCACGAUUAGUGCUGAGAAGGUUGAACAUGAGGAUCACCCAUGUAGAUCAUUAACGACUUAAUU [ENG1/10-A2] (Eterna round: R96, puzzle: Exclusion NG 1)				28.4	18	apparent KD of MS2 coat protein [4]: 14.1 nM
AUUAAUCAGCAGGAUAUAAGUAUCUGAUGGUGGUUAGAAGGGCUGACAUGAGGAUCACCCAUGUGCUCUUCGUG [Beusbi] (puzzle: Exclusion 6)		11.1				
CUUUUGUGAGGAUAUCAGUUGUAAAAAAAUAAAAUUACUACUGAGAAGGCACAUGAGGAUCACCCAUGUUCCUC [salish99_ex4_r3_033] (puzzle: Exclusion 4)		33.2				
CUUUUGUGAGGAUAUCAGUAGUAAAUAAAUAAAAUAACUACUGAGAAGGCACAUGAGGAUCACCCAUGUUCCUC [Mat - Exclusion 4 - Mod of Salish - D69] (puzzle: Exclusion 4)		38.6				
